In the supplement of paper PMC9170038:

Test system: MS2 coat protein
Test: apparent KD of MS2 coat protein; designed switch direction (-1 OFF switch, 1 ON switch): 1; higher = weaker reporter binding
Summary of the method: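 For each design, the apparent KD is the median over clusters of curves fitted to normalised cluster fluorescence. Clusters held RNA switches with common flanks, transcribed on Illumina chips by stalled E. coli RNA polymerase. These were titrated with SNAP-549-labelled MS2 coat protein, doubling from 0.7 or 1.5 nM to 3 µM, without input, with 200 uM small-molecule ligand, or with an oligonucleotide input.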

[1] = input ligand: microRNA oligo, concentration not stated
[2] = Eterna round: R95, input ligand: FMN 200 uM
[3] = Eterna round: R95, input ligand: microRNA oligo, concentration not stated
[4] = Eterna round: R95, input ligand: none

| Sequence | apparent KD of MS2 coat protein (input ligand: FMN 200 uM) [nM] | apparent KD of MS2 coat protein [1] [nM] | apparent KD of MS2 coat protein (input ligand: none) [nM] | apparent KD of MS2 coat protein [2] [nM] | apparent KD of MS2 coat protein [3] [nM] | apparent KD of MS2 coat protein [4] [nM] |
| --- | --- | --- | --- | --- | --- | --- |
| GGUGGGUUGCUGCCGGCACAUGAGGAUCACCCAUGUUUUGGGAAGGAUAUGGUACCUGUUUGGUGCCAGAAGGUCCCGUUGGUG [salish99_SSNG3_r04_711] (Eterna round: R96, puzzle: Same State NG 3) | 864 | 526 | 522 |  |  |  |
| GUAAAACAUGAGGAUCACCCAUGUAAUAAUAUGGGAGGAUAUCAGAUUUAAUUUAAUUUAUGAGAAGGCCUAAAUU [Mat - Same State 1 - Mod of Eli - D62] (puzzle: Same State 1) |  |  |  | 43.4 | 488 | 596 |
| GUAAAACAUGAGGAUCACCCAUGUAAUAAUAUGGGAGGAUAUCUGAUUUAAUUUAAUUUAAGAGAAGGCCUAAAUG [Mat - Same State 1 - Mod of Eli - D58] (puzzle: Same State 1) |  |  |  | 39.9 | 318 | 608 |
| GUAAAACAUGAGGAUCACCCAUGUCAUCUAAGUCGAGGAUAUGGGAAUUAAUUAAUUAAACCAGAAGGCGAAAUUG [Mat - Same State 1 - D97] (puzzle: Same State 1) |  |  |  | 44.6 | 844 | 606 |
| GUAAUACAUGAGGAUCACCCAUGUCAAUGUAGUCGAGGAUAUGGGUAGCUAUGAGGCUUACUAGAAGGCGACGAGC [Same State 1 - Mod of Vinnie Teenbexe v.5] (Eterna round: R96, puzzle: Same State 1) | 46.5 | 208 | 249 |  |  |  |
| GUAAUACAUGAGGAUCACCCAUGUCAAUGUAGUCGAGGAUAUGGGUAGCUAUGAGGCUUACUAGAAGGCGACGAGC [Same State 1 - Mod of Vinnie Teenbexe v.5] (puzzle: Same State 1) |  |  |  | 28 | 176 | 359 |
| GUACAGAUCACAGGAUAUCACGUCGUUUAGACGUGAGAAGGGUGAUCACACAUGAAUAUUAAUACAUGAGGAUCACCCAUGUAC [SSNG1/16-A3] (Eterna round: R96, puzzle: Same State NG 1) |  | 22.1 |  |  |  |  |
| GUACAGAUUAUAGGAUAUCACGUCGUUUAGACGUGAGAAGGAUAAUCACACAUGAAUAUUAAUACAUGAGGAUCACCCAUGUAC [SSNG1/17-A3] (Eterna round: R96, puzzle: Same State NG 1) | 18.4 | 17.5 | 18.5 |  |  |  |
| GUACAUAUUAUAGGAUAUCACGUCGAAUAGACGUGAGAAGGAUAAUCCCACAUGAAUAUUAAUACAUGAGGAUCACCCAUGUAC [SSNG1/18-A1] (Eterna round: R96, puzzle: Same State NG 1) | 42 | 49.7 | 49.2 |  |  |  |
| GUAGAUAUAACGGAGGAUAUUCAAUGAGAGACAUGAGGAUCACCCAUGUAAGAGUGAGAUGAUAGGAAGAAGGCUGAGAGAGAUG [Altered State 2-9 - Jieux - Same State 2] (puzzle: Same State 2) |  |  |  | 140 | 139 | 102 |
| GUAGCAUACCGAGGAUAUUCAUACAUGAGGAUCACCCAUGUUAUUAUAGGCCGAUUACGGCCUUGGGAGAAGGCGGAAUGCUAC [Xeonanis - 20 Mod28] (Eterna round: R96, puzzle: Same State NG 2) | 13.1 | 11.4 | 16.1 |  |  |  |
| GUAGGACAUGAGGAUCACCCAUGUGGAGAGGAACGAGGAUAUGUGAGAGGAGUGCAGAGGACAGAAGGCGUGGAGG [JR_SS1_Sub027] (puzzle: Same State 1) |  |  |  | 42.6 | 31.1 | 62.1 |
| GUAUCUACAGGUUUUUUAGCUCGUCUGAUACAUGAGGAUCACCCAUGUUAUAGCCCUGUGCUUGCGCAGGGCUGAGG [Sensor for hsa-mir-208a ( MOD of Tearor v.4 )] (puzzle: Sensor for hsa-mir-208a) |  |  |  | 47.6 | 34.1 | 49.3 |
| GUCAGGCAAGCUUUUUUCUCGUAGUGUAAACAUGAGGAUCACCCAUGUGCUCGCCCUGGAUCUUUGGAUCCCAGAAA [Anedraus] (puzzle: Sensor for hsa-mir-208a) |  |  |  | 40.2 | 21 | 41.9 |
| GUGAAGAAUUAAGGAUAUCGAGUCAAGAUGUUAAACAUGAGGAUCACCCAUGUGGGUUGCGGUAUCGAGAAGGUAAAUUACAAG [salish99_SSNG2_r04_501] (Eterna round: R96, puzzle: Same State NG 2) | 26.7 | 25.9 | 31.4 |  |  |  |
| GUGCAACCGUGUGAGGAUAUCGGUGAAUAAACAUGAGGAUCACCCAUGUCCGAAGCUCGGUUCUCCGAGAAGGCGCACAGUUGCA [Same State 2 - Mod of Erisin v.4] (puzzle: Same State 2) |  |  |  | 23.8 | 116 | 159 |

| Sequence | apparent KD of MS2 coat protein (input ligand: FMN 200 uM) [nM] | apparent KD of MS2 coat protein [1] [nM] | apparent KD of MS2 coat protein (input ligand: none) [nM] | apparent KD of MS2 coat protein [2] [nM] | apparent KD of MS2 coat protein [3] [nM] | apparent KD of MS2 coat protein [4] [nM] |
| --- | --- | --- | --- | --- | --- | --- |
| GUGCUCGUGUGAGGAUAUGCUUCCGUUUCGGCUGCAGAAGGUACUAUUAUACAUGAGGAUCACCCAUGUCUCUUUUCUUCGGUG [salish99_SSNG1_r04_912] (Eterna round: R96, puzzle: Same State NG 1) |  | 22.8 |  |  |  |  |
| GUGCUCGUGUGAGGAUAUGCUUCCGUUUCGGCUGCAGAAGGUACUAUUAUACAUGAGGAUCACCCAUGUCUCUUUUGUUUGGUG [salish99_SSNG1_r04_910] (Eterna round: R96, puzzle: Same State NG 1) | 95 | 51.9 | 67.8 |  |  |  |
| GUGCUCGUGUGAGGAUAUGUUGCCGGGUCGGCUGCAGAAGGUACUAUUAUACAUGAGGAUCACCCAUGUCGCUUUUCUCCGGUG [salish99_SSNG1_r04_920] (Eterna round: R96, puzzle: Same State NG 1) | 98.3 | 58.8 | 65.8 |  |  |  |
| GUGGCCCAGGCACAGGAUAUGUUUCUCGUAACAUGAGGAUCACCCAUGUGCCUAUGAGAUAUAAUGCAGAAGGGUGCACGCCACG [Mat - Same State 2 - Mod of UCT - D80] (puzzle: Same State 2) |  |  |  | 16.2 | 68.2 | 60.9 |
| GUGGCGGGUUGAGGAUAUUGGUUGCCUAUGUUUUACAUGAGGAUCACCCAUGUGGGUUGCGGUUUCGAGAAGGUAGGUUGCUGG [salish99_SSNG2_r04_047] (Eterna round: R96, puzzle: Same State NG 2) | 420 | 228 | 347 |  |  |  |
| GUGGUCAGACAUGAGGAUCACCCAUGUGGAAUAAAUAACAGACAGGAUAUCCAAUAUAGGAUAUAGGAGAAGGGUCGAUUGGUG (Eterna round: R96, puzzle: Same State NG 3) |  | 56.9 |  |  |  |  |
| GUGGUCAGACAUGAGGAUCACCCAUGUGGAAUAAAUAACGAACAGGAUAUGCAAUAUAGGAUAUAGUAGAAGGGUUGAUUGGUG (Eterna round: R96, puzzle: Same State NG 3) |  | 82.4 |  |  |  |  |
| GUGGUCAGACAUGAGGAUCACCCAUGUGGAAUAAAUAACGGACAGGAUAUCGAAUAUAGGAUAUACGAGAAGGGUUGAUUGGUG (Eterna round: R96, puzzle: Same State NG 3) |  | 53.9 |  |  |  |  |
| GUGGUCAGACAUGAGGAUCACCCAUGUGGAAUAAAUAAGGAAUAGGAUAUGGAAUAUAGGAUAUACCAGAAGGGUUGGUUGGUG (Eterna round: R96, puzzle: Same State NG 3) |  | 73.4 |  |  |  |  |
| GUGGUCAGACAUGAGGAUCACCCAUGUGGAAUAAAUAAGGAGAAGGAUAUUAAAUAUAGGAUAUAUAAGAAGGUCUGGUUGGUG (Eterna round: R96, puzzle: Same State NG 3) |  | 65.2 |  |  |  |  |
| GUGGUCAGACAUGAGGAUCACCCAUGUGGAAUAAAUAAGGUCAAGGAUAUUCAAUAUAGGAUAUAGAAGAAGGUGAGGUUGGUG (Eterna round: R96, puzzle: Same State NG 3) |  | 108 |  |  |  |  |
| GUGGUUCUCGUAGGAUAUGUAGGAUAUGCCUACAUGAGGAUCACCCAUGUUCGCAUGGCAGAAGGACAGAAGGACGAUCACUAA [pwkr ssNG2 2FMN + 1F5.15] (Eterna round: R96, puzzle: Same State NG 2) | 159 | 11.7 | 94.2 |  |  |  |
| GUUAAACAUGAGGAUCACCCAUGUAAUAUAAUGGGAGGAUAUCUGAAUUAAUUAAAUUAAGGAGAAGGCCUAAUUG [Mat - Same State 1 - Mod of Eli - D52] (puzzle: Same State 1) |  |  |  | 42 | 181 | 255 |
| GUUAAACAUGAGGAUCACCCAUGUAAUCAUAUGGGAGGAUAUGGGAAUUAAUUAAUUAAACCAGAAGGCCUAAUUG [Mat - Same State 1 - D83] (puzzle: Same State 1) |  |  |  | 19.6 | 87.4 | 92.3 |
| GUUACAUGAGGAUCACCCAUGUAUGUGUGGGAGUAAGUGUCUUAGGAUAUCUAGGAUUUAAUUUAAGAGAAGGAAGAUUGUUGU [JMF's solution 50] (Eterna round: R96, puzzle: Same State NG 3) | 89.7 | 45.9 | 77.4 |  |  |  |
| GUUACAUGAGGAUCACCCAUGUAUGUGUGGGAGUAAGUGUCUUAGGAUAUCUAGUAUUUAAUUUGAGAGAAGGAAGAUUGUUGU [JMF's solution 70] (Eterna round: R96, puzzle: Same State NG 3) | 138 | 83.9 | 147 |  |  |  |
